# Laboratory results: the supplement of paper PMC9732359
# ± gives the uncertainty stated by the source.
# Test: protein stability index of a GFP-peptide fusion (yeast GPS) (PSI 1-4); higher = more stable; sorted into four equal gates, so the index is relative within each strain
# Summary of the method: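 The protein stability index of a peptide was calculated by multiplying its read frequency in each gate by that gate's number and adding the products. The peptides were tiled 17-residue stretches of yeast proteins, fused downstream of GFP on a Cherry-expressing plasmid and carried in yeast as a pooled library. Mid-log cultures in leucine-free medium were sorted into four equal gates by GFP/Cherry ratio, and each gate's plasmids were PCR-amplified and Illumina-sequenced.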
Sequence,protein stability index (doa10∆),protein stability index (pdr5∆),protein stability index (san1∆),protein stability index (ubr1∆)
PFYGSYTETDPAKVAEE [SRP54],3.19 ± 0.1,3.01 ± 0.14,3.08 ± 0.055,2.82 ± 0.099
KDSSLNYSSESYRNAFT [YJL039C/NUP192],2.89 ± 0.06,2.32 ± 0.064,2.02 ± 0.069,2.85 ± 0.047
LVDQGFNYSGKDMLYSG [RET1],3.46 ± 0.084,3.29 ± 0.083,3.36 ± 0.052,3.52 ± 0.044
GDTVQFAEYIQANIQLY [PRE1],2.11 ± 0.065,2.31 ± 0.063,2.2 ± 0.064,2.04 ± 0.053
GIRVQDSVILASSKAVT [PRE1],2.54 ± 0.065,2.73 ± 0.076,2.46 ± 0.068,2.38 ± 0.05
MSLINDAMVTRTPVIIS [SMD2],1.26 ± 0.07,1.7 ± 0.066,1.47 ± 0.12,1.52 ± 0.085
MLLITSGDSGVYTLACR [RPC11],1.58 ± 0.1,2.45 ± 0.13,3 ± 0.093,2.46 ± 0.088
NVIDTQRKNGVTNSPLF [ECM29],3 ± 0.25,3.19 ± 0.091,3.09 ± 0.21,3.12 ± 0.11
HGGSRYATKDGVAHLLN [QCR2],3.13 ± 0.094,2.82 ± 0.055,3.3 ± 0.1,3.09 ± 0.072
GPKLRASDLKINELFKK [RPN8],1.98 ± 0.12,1.42 ± 0.11,1.1 ± 0.13,1.08 ± 0.13
VLEQLSGQTPVQSKARY [RPL11A],3.2 ± 0.24,2.98 ± 0.17,2.91 ± 0.077,3.15 ± 0.088
LPLTEHKSPNLSLMLES [SRB4],2.43 ± 0.066,3.18 ± 0.06,2.39 ± 0.11,2.75 ± 0.06
AFSFGAKPDEKKNDEVS [YJL041W/NSP1],3.22 ± 0.16,3.19 ± 0.15,,3.26 ± 0.17
QITIEPGVDVEVVVASN [RPS20],2.53 ± 0.061,2.57 ± 0.099,3.01 ± 0.098,2.51 ± 0.066
GEENRVRFIGDSVAAIG [QCR2],3.3 ± 0.15,2.76 ± 0.18,,3 ± 0.24
RVLEIQTSLVRMFEKNV [SKI6],3.35 ± 0.094,3.07 ± 0.065,2.51 ± 0.078,3.12 ± 0.047
EIVRDILHTKESSNEAK [SIR4],2.75 ± 0.067,2.96 ± 0.074,2.82 ± 0.06,2.75 ± 0.059
TNVNVKIKDVQQQIESN [SMC3],3.19 ± 0.088,3.17 ± 0.081,3.18 ± 0.074,2.79 ± 0.1
KQNEQLHVEQLSGGQKT [SMC3],2.07 ± 0.095,2.71 ± 0.099,2.19 ± 0.1,2.19 ± 0.053
NAPAWFKLSSESVIEQI [RPS13],1.98 ± 0.064,1.73 ± 0.054,2.34 ± 0.13,2.48 ± 0.067
DKKLLRRLLNLYNDNNK [SWI1],2.48 ± 0.088,2.62 ± 0.072,2.57 ± 0.085,2.6 ± 0.068
SEKKDTDGADENVQIGE [SRB4],2.65 ± 0.12,3.31 ± 0.17,,3.06 ± 0.18
EDGTFSVLYPDELEDDT [RRP43],3.23 ± 0.086,3.1 ± 0.077,3.16 ± 0.061,3.11 ± 0.063
ASSKAVTRGISVLKDSD [PRE1],2.4 ± 0.058,2.76 ± 0.05,2.89 ± 0.051,2.67 ± 0.052
MSGFSLSEYLTKFQTTD [YCS4],,,,2.9 ± 0.14
MAVGKNKRLSKGKKGQK [RPS1A],1.5 ± 0.14,1.62 ± 0.086,1.65 ± 0.15,1.45 ± 0.12

Sequence,protein stability index (doa10∆),protein stability index (pdr5∆),protein stability index (san1∆),protein stability index (ubr1∆)
TNGGLFGSGTQNNNTLG [YGR119C/NUP57],3.25 ± 0.11,2.91 ± 0.091,3.02 ± 0.069,3.08 ± 0.069
QLILSDVDPEFYLKYVD [RET1],3.25 ± 0.23,2.95 ± 0.15,2.72 ± 0.12,2.92 ± 0.12
NIDQEGSKQADRMAKYL [PGD1],3.4 ± 0.094,3.35 ± 0.13,2.97 ± 0.087,3.17 ± 0.15
RYNGGNDNIGANRSRFN [SMB1],3.24 ± 0.099,3.39 ± 0.078,3.14 ± 0.048,3.35 ± 0.08
SKTENVRRLEAQRNALN [RPT6],2.65 ± 0.17,2.91 ± 0.18,,2.88 ± 0.074
EKSTQLQQKHELDTASR [YGR119C/NUP57],2.95 ± 0.044,3.06 ± 0.039,2.85 ± 0.029,3.21 ± 0.031
LEGEELAFYLRRLTAKK [RPS8A],1.9 ± 0.068,1.75 ± 0.068,1.93 ± 0.1,3.05 ± 0.099
ITPMNDDQCMLITTYSK [SIN4],1.93 ± 0.064,2.41 ± 0.075,1.98 ± 0.22,1.99 ± 0.038
ENELVITSIPKPLTENC [RMP1],3.42 ± 0.14,3.4 ± 0.11,3.39 ± 0.066,3.1 ± 0.07
SEISIIDATLKEELLRD [RRP45],2.44 ± 0.094,2.22 ± 0.1,2.3 ± 0.099,2.83 ± 0.11
KSLDSIPMSKTIKDLVG [FAS2],3.26 ± 0.12,2.97 ± 0.092,2.79 ± 0.13,3.16 ± 0.075
AKKHKLNAITLDGDRAD [SMC3],2.37 ± 0.21,2.66 ± 0.28,,
EGQENNYNSTSRSTEKK [SIR4],3.3 ± 0.17,3.26 ± 0.13,2.65 ± 0.17,3.25 ± 0.11
NFNDIPPSVTLQDWQRE [YDL088C/ASM4],2.51 ± 0.078,2.31 ± 0.054,2.44 ± 0.077,3.09 ± 0.053
LVSEKIINSTALMKEKD [RPC82],3.19 ± 0.17,3.11 ± 0.081,3.11 ± 0.084,3.27 ± 0.092
VHPIPDVAFADGGKTLR [YMR129W/POM152],2.5 ± 0.064,2.68 ± 0.086,2.66 ± 0.084,2.63 ± 0.051
TPLLENISISTSELGND [BRR2],2.16 ± 0.058,2.05 ± 0.049,2.2 ± 0.07,2.03 ± 0.042
QLKTGLAAIVSTVIEEF [YGL172W/NUP49],2.93 ± 0.094,2.79 ± 0.08,2.83 ± 0.1,3.04 ± 0.076
TFLVSNDDEVSQFCYVS [RPN14],2 ± 0.13,2.55 ± 0.23,2.28 ± 0.13,
PLGKILLKGDNITLITS [SME1],1.9 ± 0.093,3.12 ± 0.13,1.89 ± 0.16,3.07 ± 0.061
LALSSNISRDFQSYIVS [COR1],2.03 ± 0.073,2.71 ± 0.084,2.09 ± 0.1,1.88 ± 0.047
VQVGPMKVFVTKHLMPQ [RPB7],2.54 ± 0.047,2.37 ± 0.041,2.14 ± 0.062,2.52 ± 0.042
YMEPFDLDLNEQVRKMY [NSL1],2.88 ± 0.1,2.36 ± 0.079,3.1 ± 0.068,2.46 ± 0.052
MAQNKTHIPQTNLKNHP [YLR018C/POM34],3.12 ± 0.082,2.98 ± 0.057,2.75 ± 0.058,2.85 ± 0.04
ERQQENLLIQRLNFNQN [SWI3],3.26 ± 0.071,3.38 ± 0.073,3.2 ± 0.042,3.19 ± 0.055
FFTIDHFIQKLHTARKI [SIR2],1.75 ± 0.09,1.71 ± 0.1,1.11 ± 0.12,1.37 ± 0.12
